Reference: patent US20240417446A1 (US Dept. of Health and Human Services, published 2024)

B1: NCI-CoV-S4A9 (VNAR)
VNAR: ARVDQTPRSVTKETGESLTINCVLRDASYALGSTCWYRKKSGSTNEESISKGGRYVETVNSGSKSFSLRINDLTVEDGGTYRCGVQSRWGAVPKLCSNYAACGDGTAVTVN
B2: NCI-CoV-S2A9 (VNAR)
VNAR: ARVDQTPRSVTKETGESLTINCVLRDASYALGRTCWYRKKSGSTNEESISKGGRYVETVNSGSKSFSLRINDLTVEDGGTYRCGVSTPWSCDYGPLCFYAACGDGTVVTVN
B3: NCI-CoV-S2G8 (VNAR)
VNAR: ARVDQTPQTITKETGESLTINCVLRDSNCPLSNTYWYRKKSGSTNEESISKGGRYVETVNSGSKSFSLRINDLTVEDSGTYRCKVRTHWSICWEMGLEPNYDVYGGGTVVTVN
B4: NCI-CoV-CG2D11 (VHH)
VHH: AVQLVDSGGGSVQAGGSLRLSCAGSAFTYSSYCMGWFRQAPGKEREAVAAINSGTSSTYYADSVKGRFTVSQDNANNTVYLLMISLKPEDTAIYICAALVAPDYDDYDVAAPDNFDYWGQGTQVTVSS
B5: NCI-CoV-CGF10 (VHH)
VHH: AVQLVESGGGLVQPGGSLRLSCAASGFTFSSYGMHWVRQAPGKGLERVAGINWDGSNSYYTETVKGRFTISRDNAKNTAYLQMNSLKPEDTAMYYCRTLILDSDCDPGSTYRYAWGQGTQVTVSS
B6: NCI-CoV-CGH3 (VHH)
VHH: AVQLVESGGGLVQPGGSLRLSCAASGFTFSSYAMGWVRQAPGKGLEWISAINSGGDIRYYADSVKGRFTISRDNAKNTLYLQMNSLKPEDTAVYYCATDDEILSYGLGTSFDYWGQGTQVTVSS
B7: NCI-CoV-S3A10 (VNAR)
VNAR: ARVDQTPRSVTKETGESLTINCVLRDASYALGSTCWYRKKSGSTNEESISKGGRYVETVNSGSKSFSLRINDLTVEDGGTYRCGRIQNTKAVLLPCVYAACGDGTVVTVN
B8: NCI-CoV-CL3H4 (VHH)
VHH: DVQLVESGGGAVKPGGSLTLTCTVQEGSRNCVGWFRQGSGKDRQAVAMINGNGGTTNYDDRVKGRFQISRDGSLVHLRMNDVKLGDTDIYYCRQGQTYDCWGGTWTDSGWGQGTQVTVSS
B9: NCI-CoV-CG2G2 (VHH)
VHH: AVQLVESGGGSVPPGGSLTLSCTVSDNIFRTYAVGWFRQAPEKRCQWIATLNADESTEYNVAVTGRFTISRDNSGRSVYLQMDNLNSEDTAIYYCASLARKWSCHDSWGRGTQVTVSS
B10: NCI-CoV-CLA2 (VHH)
VHH: QVQLVESGGGSVQPGGSLRLSCAVSGYTSSSYCFGWFRQAPGKDREGIIAMEPGNTYTAGAVKGRFTISRDNAKNMVYLQMNSLKPDDTAMYYCAASPYPGTWLNPDLFDTWGQGTQVTVSS

How the values were obtained:
[1] = molecular target: T1, SARS-CoV-2 spike protein on pseudovirus (SARS-CoV-2, UniProt P0DTC2 14-1273); test: cell-based or functional assay
[2] = molecular target: SARS-CoV-1 spike protein on pseudovirus (SARS-CoV-1, UniProt P59594 14-1255); test: cell-based or functional assay
[3] = molecular target: T1, SARS-CoV-2 spike protein on pseudovirus; test: cell-based or functional assay; remark: listed apart in the source
[4] = molecular target: T1, SARS-CoV-2 spike protein on pseudovirus; test: cell-based or functional assay; remark: listed apart in the source
BSA [5] = molecular target: T2, BSA (bovine, UniProt P02769); test: Protein ELISA, antigen coated, HRP-anti-Flag detection, absorbance 450 nm
T2 construct: also called bovine serum albumin

A431-SARS-CoV-S = test: Flow cytometry on A431 cells expressing SARS-CoV spike, anti-FLAG-APC detection
BSA [6] = molecular target: T2, BSA; test: Protein ELISA, antigen coated, HRP-anti-Flag detection, absorbance 450 nm; remark: listed apart in the source
BSA [7] = molecular target: T2, BSA; test: Protein ELISA, antigen coated, HRP-anti-Flag detection, OD450

T2 sequence (P02769 25-607 limits assumed): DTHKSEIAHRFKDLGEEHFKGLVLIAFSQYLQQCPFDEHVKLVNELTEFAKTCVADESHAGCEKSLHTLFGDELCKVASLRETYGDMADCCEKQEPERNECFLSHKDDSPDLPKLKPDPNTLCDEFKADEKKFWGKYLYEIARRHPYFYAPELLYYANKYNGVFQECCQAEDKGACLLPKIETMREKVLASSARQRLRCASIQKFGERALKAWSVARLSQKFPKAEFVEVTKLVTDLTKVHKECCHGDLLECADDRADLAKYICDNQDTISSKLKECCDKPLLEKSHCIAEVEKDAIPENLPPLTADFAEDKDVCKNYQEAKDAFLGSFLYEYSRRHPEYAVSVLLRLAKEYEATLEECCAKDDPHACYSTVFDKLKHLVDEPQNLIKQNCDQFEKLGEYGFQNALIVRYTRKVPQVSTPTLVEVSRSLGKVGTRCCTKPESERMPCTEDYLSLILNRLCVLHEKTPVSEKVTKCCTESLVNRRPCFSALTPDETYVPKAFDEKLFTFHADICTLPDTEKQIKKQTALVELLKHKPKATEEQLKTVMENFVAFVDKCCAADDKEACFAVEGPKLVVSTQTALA

| Binder | Neutralizing Power, SARS-CoV-2 Pseudovirus Neutralization Assay [1] [%] | binding result (A431-SARS-CoV-S) | further results |
| --- | --- | --- | --- |
| B1 | 30 |  |  |
| B2 | 90 |  | IC50 for neutralizing pseudovirus [2]: 49.3 µM; IC50 for neutralizing pseudovirus [3]: 4.34 µM; IC50, neutralization of the original strain of SARS-CoV-2 pseudovirus [4]: 1.39 µM; IC50, pseudovirus neutralization (luciferase, 293-hACE2 cells) [4]: 1.29 µM; binding result (BSA [5]): no binding (tested: 10 µg/ml) |
| B3 | 50 | binds | binding result (BSA [6]): no binding (tested: 10 µg/ml) |
| B4 | 40 |  |  |
| B5 | 20 | no binding |  |
| B6 | 30 | no binding |  |
| B7 | 60 |  |  |
| B8 | 30 |  |  |
| B9 | 50 |  | binding result (BSA [7]): no binding (tested: 10 µg/ml) |
| B10 | 45 |  |  |
